Results from the supplement of paper PMC9170038.

Tested on: MS2 coat protein
Assay: apparent KD of MS2 coat protein; designed switch direction (-1 OFF switch, 1 ON switch): -1; higher = weaker reporter binding
Procedure, shortened: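 An oligonucleotide input, 200 uM small-molecule ligand, or no input was present during titration of SNAP-549-labelled MS2 coat protein, which was doubled from 0.7 or 1.5 nM to 3 µM. Designed RNA switches had been transcribed on Illumina chips by stalled E. coli RNA polymerase. Apparent KD per design is the median over clusters of curves fitted to normalised cluster fluorescence.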

[1] = input ligand: microRNA oligo, concentration not stated
[2] = Eterna round: R95, input ligand: microRNA oligo, concentration not stated
[3] = Eterna round: R95, input ligand: FMN 200 uM
[4] = Eterna round: R95, input ligand: none

Sequence	apparent KD of MS2 coat protein (input ligand: FMN 200 uM)	apparent KD of MS2 coat protein [1]	apparent KD of MS2 coat protein (input ligand: none)	apparent KD of MS2 coat protein [2]	apparent KD of MS2 coat protein [3]	apparent KD of MS2 coat protein [4]
AGGUCCUUCUGGAGACAUGAGGAUCACCCAUGUCGAGUCAGCGAGGAUAUCGGUUAAUAAUGUGAUGAGAAGGCGCAGACCGAU [Ex NG3 #53] (Eterna round: R96, puzzle: Exclusion NG 3)	15.5 nM	8.55 nM	11.3 nM	–	–	–
CUUGACUGAGGAUAUACGAGAUCGAAAGAUCGGCGAUCCCUACAUGAGGAUCACCCAUGUAGAAGGCAGUCAAG [Mod 14 - Jieux - Exclusion 2] (Eterna round: R97, puzzle: Exclusion 2)	70.6 nM	–	17 nM	–	–	–
GGGCUCACGGUCAGGAUAUGUAAAACGUAAGUAUUAUAGAAGGGACAUGAGGAUCACCCAUGUGUGAUGAGCGC [Eternabot (L1) Solution 37] (Eterna round: R97, puzzle: Brourd's mod of Exclusion 4)	323 nM	–	124 nM	–	–	–
CAGUACUGAGGAUAUACAUGAGGAUCACCCAUGUGUUCCAGCUAGGAAACUAGCAAUAGUAGAAGGCAGUACUG [salish99_ex3_r3_090x] (puzzle: Exclusion 3)	–	–	–	21.3 nM	–	–
GAAAAGGUAGGAUAUACGAAAAAAAAGGGUAGAGAAAAAACACAUGAGGAUCACCCAUGUAGAAGGACCAAAAG [salish99_ex2_r3_023] (puzzle: Exclusion 2)	–	–	–	27.1 nM	84.8 nM	26.7 nM
GCGCACCUACCAAAAGGUAGGCCCACAUGAGGAUCACCCAUGUAGGAUAUCGAUUGCUUUGCAGUCGAGAAGGACGUGAUGCGC [JL ENG3 3.80 Mod 17] (Eterna round: R96, puzzle: Exclusion NG 3)	25.7 nM	11.6 nM	18.3 nM	–	–	–
AAACACUUAGGAUAUACAUGAGGAUCACCCAUGUCAGACAACGACUACACAAAGUCAUGUAGAAGGAAGUCAAG [Islarele] (puzzle: Exclusion 3)	–	–	–	24.1 nM	24.3 nM	26 nM
UAGAUACAUGAGGAUCACCCAUGUGAGGAUAUGAGAAUUAGUUUAAAUGAAUUAAUUUUCAGAAGGCACGGAGG [JR_Ex1_Sub053] (Eterna round: R97, puzzle: Exclusion 1)	180 nM	–	123 nM	–	–	–
CAGUACUGAGGAUAUACAUGAGGAUCACCCAUGUGAUUUAGUGCACGCGUACGUGUACGUAGAAGGCAGUACUG [JL 3.27 m1] (Eterna round: R97, puzzle: Exclusion 3)	182 nM	–	20.8 nM	–	–	–
GUCGUGCGGCAGUGCUGUACGAGUACAUGAGGAUCACCCAUGUAGGAUAUGGUUCGUUUUGCGUGCUAGAAGGGCGUGCGUUGA [Excl-NG3-LRO20] (Eterna round: R96, puzzle: Exclusion NG 3)	20 nM	14 nM	22 nM	–	–	–
GCUUGUGGGCAAGGAUAUCCUACGUUGUUCUGGUUCGUGUCUGUCACAUGAGGAUCACCCAUGUGGGAGAAGGUGCCUUUGGUG [Design 62] (Eterna round: R96, puzzle: Exclusion NG 2)	23.2 nM	9.2 nM	15.6 nM	–	–	–
GGAAUGUAAGGAUAUCCGAAAGGAAGGAGAGGGAGAGGGAAGGAGAAGGUACAUGAGGAUCACCCAUGUAAGGG [AK-MS2ROC-r4-exclusion4-9] (Eterna round: R97, puzzle: Exclusion 4)	88.5 nM	–	69.2 nM	–	–	–
GUUAGUUAAGGAUAUACUGGGAGCUGCGGCGUCUCGCCGCAACAUGAGGAUCACCCAUGUAGAAGGUGACCAUU [JL ViennaUCT Enbibi mod 5] (puzzle: Exclusion 2)	–	–	–	221 nM	–	–
AAUACACAUGAGGAUCACCCAUGUUAGGAUAUUCGCGGGAAAGCUGUCAAAACGCCGAGGAGAAGGAACAGGAA [Excls1-X] (puzzle: Exclusion 1)	–	–	–	33.7 nM	40 nM	45.7 nM
GAUUAUGCGAGCUUUAGGGACAUGAGGAUCACCCAUGUUCGUCUUAUUAAUCUGGGUGCACUGACAUACCUAAAUCU [JMF 92] (puzzle: Sensor v3, turn-off variant 1)	–	–	–	81.9 nM	90.9 nM	132 nM
UUGUUACAUGAGGAUCACCCAUGUGAGGAUAUGGUUCAGUACUGUCAUGUCAAGUACUCCAGAAGGCACAUGUU [1st #30] (Eterna round: R97, puzzle: Exclusion 1)	566 nM	–	508 nM	–	–	–
UCUUGCUGGCGAGGAUAUCCUGUGCGGUUCCGGCUCGUGUCUGUUACAUGAGGAUCACCCAUGUGGGAGAAGGUGUCUGUGGCC [Design 97] (Eterna round: R96, puzzle: Exclusion NG 2)	18.6 nM	16.7 nM	21.9 nM	–	–	–

Sequence	apparent KD of MS2 coat protein (input ligand: FMN 200 uM)	apparent KD of MS2 coat protein [1]	apparent KD of MS2 coat protein (input ligand: none)	apparent KD of MS2 coat protein [2]	apparent KD of MS2 coat protein [3]	apparent KD of MS2 coat protein [4]
GUGGUACAUGAGGAUCACCCAUGUAAGGAUAUAGUCGGCUGGUGGUCGCGGGUGGUGGCUAGAAGGUGCGUGCG [-19.6, -18.2 kcal, A 19%] (Eterna round: R97, puzzle: Exclusion 1)	101 nM	–	114 nM	–	–	–
CCCUCAUGACGCACAUGAGGAUCACCCAUGUAUAAACCGUCAGAGGAUAUCCGCCGGUCACCGAAGGAGAAGGCUGACCUAAAG [Quinlaan] (Eterna round: R96, puzzle: Exclusion NG 3)	21.2 nM	11 nM	18.2 nM	–	–	–
UCCAACCCUGUGAGGAUAUCGUCCAUUAUUUGUAACGAGAAGGCACAUGAGGAUCACCCAUGUUUUUUAUUUUU [JR_BMOE4_Sub080] (puzzle: Brourd's mod of Exclusion 4)	–	–	–	28 nM	83.7 nM	22.5 nM
UUGUUACGAUUAGGAUAUUAUUGAUUGGACAGUAUGAUUUACAUGAGGAUCACCCAUGUUACUUUUAAGAAGGAAUCGUAUUAU [JR_ExcNG2_Sub090] (Eterna round: R96, puzzle: Exclusion NG 2)	–	14.8 nM	–	–	–	–
CACUUGGCAGGAUAUGCAAUUUUAGACAUGAGGAUCACCCAUGUGAUCAUUCCAUAUUAUGCAGAAGGGCCUAAAC [JR_E5_Sub050] (puzzle: Exclusion 5)	–	–	–	214 nM	–	–
UCCUUACAUGAGGAUCACCCAUGUCAGGAUAUCUCCUCACUGCGCUUGCGCAGUGAAUAGAGAAGGGACGGGCU [JL ViennaUCT Aner mod 8] (puzzle: Exclusion 1)	–	–	–	32.4 nM	36.6 nM	40.1 nM
ACAAGCAGAGAGUAAAUGGACAUGAGGAUCACCCAUGUGAGUCCAAGGAGAUAAGAUAUUAAAAAGGCUCGUCUUAU [AK-miRNA-r3-19] (Eterna round: R97, puzzle: Sensor, turn-off variant 1)	112 nM	–	98.3 nM	–	–	–
CUCCGCCGCAGAGGAUAUGGAUGUCGGAGACAUGAGGAUCACCCAUGUAUCCUGUCGAUGAGUACCCAGAAGGUUGUCACGCAU [Eternabot solution 49] (Eterna round: R96, puzzle: Exclusion NG 2)	26.4 nM	26 nM	26.1 nM	–	–	–
AAUAACAGAGGAUAUACUGUUUUAUGUGUUUGUUAUUUUGAACAUGAGGAUCACCCAUGUAGAAGGCUGAUUAA [JMF 50] (puzzle: Exclusion 2)	–	–	–	37.4 nM	–	–
UACAAGCUUUUAAGAUCCUACAUGAGGAUCACCCAUGUGCUCGUCUUAUAACGUACUGUGACGAAAGUCACGGUACG [JL TOV1 3.21] (Eterna round: R97, puzzle: Sensor, turn-off variant 1)	92.9 nM	–	103 nM	–	–	–
CGCUAGUCAGGAUAUACGAACAUGUCAAAAGACGUGAAGGGACAUGAGGAUCACCCAUGUAGAAGGGACUAGCA [salish99_ex2_r3_014] (puzzle: Exclusion 2)	–	–	–	22.5 nM	147 nM	24.9 nM
ACAUGUCAUUGAGGAUAUCGCACACAUGAGGAUCACCCAUGUAAACGGAUGCUCUUUCGUGGGUUCGAGAAGGCGAUGUACAUU [Ex NG2 #96] (Eterna round: R96, puzzle: Exclusion NG 2)	136 nM	49 nM	88 nM	–	–	–
UAGGCUUUAGGAUAUGCGUGUUGUAGUCGGCGAUGUGGUUCACAUGAGGAUCACCCAUGUAGAAGGAAAGUUUA [-17.2, -17 kcal, 26% A] (Eterna round: R97, puzzle: Exclusion 2)	244 nM	–	104 nM	–	–	–
CAGUACUGAGGAUAUACAUGAGGAUCACCCAUGUGUUCCGGCUAGGAAACUAGCAAAGGUAGAAGGCAGUACUG [Salish 065 m11] (Eterna round: R97, puzzle: Exclusion 3)	823 nM	–	43.7 nM	–	–	–
UUUUGGCAUGUAGGAUAUGGGUCCGAUUGGGAUUUAGAAGGACAUGAGGAUCACCCAUGUGCCCUUACUUGGUGUUUUUUUUUU [EXclNG1-LROPPY20] (Eterna round: R96, puzzle: Exclusion NG 1)	126 nM	44.6 nM	91.6 nM	–	–	–
CUGGUCCGAGGAUAUAUUAUGUGAAACAUGAGGAUCACCCAUGUAAUAUGAUGGAAAUAAAUAGAAGGCGGACUAG [Mat - Exclusion 5 - JL mod - D32] (puzzle: Exclusion 5)	–	–	–	34.5 nM	26 nM	43.5 nM
GUGAGUGGUCAGGAUAUGCUGUACAAAAGUACAGCAGAAGGGAUUACAUGAGGAUCACCCAUGUUUACUUCAUG [Omei Ex6 B4] (Eterna round: R97, puzzle: Exclusion 6)	125 nM	–	90.2 nM	–	–	–
